The values that follow are results of earlier work, collected in PMC5742237.

Where two headings read alike, the source gives them in different places.

The target in series [1] is Transhydrogenase domain I dimer domain I (Rhodospirillum rubrum) (UniProt Q2RSB2).
The target is the same in series [2]. The source holds these as a separate data set.

Sequence of UniProt Q2RSB2 (Q2RSB2 whole entry, the tested form may be a part): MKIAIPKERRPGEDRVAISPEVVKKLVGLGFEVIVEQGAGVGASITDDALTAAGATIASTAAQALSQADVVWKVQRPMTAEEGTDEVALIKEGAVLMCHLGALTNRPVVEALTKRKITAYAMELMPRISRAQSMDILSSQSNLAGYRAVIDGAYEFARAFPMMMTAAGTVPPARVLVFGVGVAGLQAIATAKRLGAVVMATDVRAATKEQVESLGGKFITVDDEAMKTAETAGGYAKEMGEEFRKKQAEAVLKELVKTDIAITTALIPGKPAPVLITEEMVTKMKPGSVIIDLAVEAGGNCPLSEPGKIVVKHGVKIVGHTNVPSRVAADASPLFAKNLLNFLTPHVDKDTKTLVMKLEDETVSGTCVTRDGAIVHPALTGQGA

With “Transhydrogenase domain III (second) domain III (from UniProt Q2RSB4)”, the Kd (as a rule, the constant that tells how readily two partners part at equilibrium) in series [1] is 10 µM.

As for “Transhydrogenase domain III domain III (from UniProt Q2RSB4)”, the Kd in series [2] is less than 0.06 µM.
